Measurements published in article PMC9891502 (PLOS Pathogens, 2023).
Numbering of substitutions follows the chain as printed. Names may count otherwise.

How the values were obtained:
gB AD-2S1 peptide [1] = biological target: gB AD-2S1 peptide (human cytomegalovirus); test: SPR; conditions: both partners purified
[2] = biological target: T1, full-length gB (Towne strain) expressed on HEK293T cells (Human cytomegalovirus strain Towne, UniProt P13201); test: cell-based or functional assay
[3] = biological target: T1, full-length gB (Towne strain) expressed …; test: flow cytometry on cells; parameters: AUC of a 3-point dilution series: unit not given beside the values; conditions: one partner purified
gB AD-2S1 peptide [4] = biological target: T2, gB AD-2S1 peptide (Human cytomegalovirus (HHV-5), gB …); test: ELISA; 384-well plates coated overnight at 4°C with 45 ng gB AD-2S1 peptide or gB ectodomain per well; mAbs in a 12-point 3-fold dilution from 1 μg/mL; detected with goat anti-human IgG-HRP; EC50; conditions: both partners purified
T2 chain: HRANETIYNTTLKYG

gB AD-2S1 peptide [5] = biological target: gB AD-2S1 peptide (human cytomegalovirus); test: SPR; conditions: both partners purified; remark: listed apart in the source
[6] = biological target: T3, gB on whole CMV virions of strain TB40/E (Human cytomegalovirus strain TB40/E (gB …, UniProt P13201, strain)); test: ELISA; conditions: one partner purified
T3 construct: also called whole virion CMV strain TB40/E; source: whole TB40/E virions coated on the plate (33 PFU/well)

gB AD-2S1 peptide [7] = biological target: T2, gB AD-2S1 peptide; test: SPR; conditions: both partners purified

B1: I7 (antibody, V domains shown)
VH: QVQLVESGGGVVQPGRSLRLSCAASGFTFSGYNLHWVRQAPGKGLEWVAVISIDGSNKHYADSVKGRFTISRDNSKNTLYLQMNSLRAEDTAVYYCARDGRSVGGFSGILDPWGQGTLVTVSS
VL: not shown
notes: also called intermediate 7
What does the source list for B1?
Kd (gB AD-2S1 peptide [1]): 4.47 nM; kon (gB AD-2S1 peptide [1]): 1.46e+08 M⁻¹ s⁻¹

B2: I8 with VL S30G reverted to germline (antibody, V domains shown)
VH: B1 VH with G31S, L34M, I53N, H59Y
VL: not shown
B2 was tested. Which “fold decrease in neutralization potency for CMV strain Towne against I8” value [2] did it give?
Its value is 9 fold.

Does B2 bind [3]?
Result: binds

Does B2 bind (gB AD-2S1 peptide [4])?
Result: binds

B3: TRL345 UCA (antibody, V domains shown)
VH: B1 VH with G31S, N33A, L34M, I53Y, H59Y
VL: not shown
notes: also called unmutated common ancestor
Which Kd (gB AD-2S1 peptide [5]) does the source give for B3 here?
Its Kd is 27.6 nM.

And the kon (gB AD-2S1 peptide [5])?
Its kon is 9.73e+07 M⁻¹ s⁻¹.

B4: I5 (antibody, V domains shown)
VH: B1 VH with A23S, G31D, Y60H, L79V, Y80N, F106Y
VL: EIVLTQSPATLSLSPGERATLSCRASQSVGSYLAWYQQKPGQAPRLLIYDASERATGIPARFSGSGSGTDFTLTISSLEPEDVAVYYCQQRSNWPPLTFGGGTKVEIK
notes: also called intermediate 5
How did the Kd (gB AD-2S1 peptide [1]) turn out when B4 was run?
Its Kd is 5.52 nM.

And the kon (gB AD-2S1 peptide [1])?
The kon was 1.23e+08 M⁻¹ s⁻¹.

B5: TRL345 UCA with VH A33G (antibody, V domains shown)
VH: B1 VH with G31S, N33G, L34M, I53Y, H59Y
VL: not shown
Which results are given for B5?
fold increase in binding against the TRL345 UCA [3]: 1.1 fold; fold increase in binding against the TRL345 UCA (gB AD-2S1 peptide [4]): ~15 fold

B6: TRL345 UCA with VH A33N (antibody, V domains shown)
VH: B1 VH with G31S, L34M, I53Y, H59Y
VL: not shown
With B6 as the binder, how does the “fold increase in binding magnitude against the UCA” value (shortened to “fold increase in binding magnitude”) [3] read?
The value was 2.5 fold.

What about the “fold increase in binding magnitude” value (gB AD-2S1 peptide [4]) of the same binder?
The value was 269 fold.

B7: TRL345 UCA with VH Y52aN (antibody, V domains shown)
VH: B1 VH with G31S, N33A, L34M, I53N, H59Y
VL: not shown
Does B7 bind [3]?
Result: binds

B8: I8 with VH Y52aN reverted to germline (antibody, V domains shown)
VH: B1 VH with G31S, L34M, I53Y, H59Y
VL: not shown
Does B8 bind [3]?
Result: binds

Does B8 bind (gB AD-2S1 peptide [4])?
Result: binds

B9: TRL345 UCA with VL S30G (antibody, V domains shown)
VH: B1 VH with G31S, N33A, L34M, I53Y, H59Y
VL: not shown
How did the “fold increase in binding magnitude” value [3] turn out when B9 was run?
Its value is 1.2 fold.

What about the “fold increase in binding magnitude” value (gB AD-2S1 peptide [4]) of the same binder?
The value was 1.8 fold.

B10: TRL345 lineage intermediate 8 (I8) mAb (antibody, V domains shown)
VH: B1 VH with G31S, L34M, I53N, H59Y
VL: not shown
What does the source list for B10?
neutralization IC50, CMV strain AD169rUL131-GFP (gB genotype 2) on MRC-5 fibroblasts [2]: 0.83 µg/mL; neutralization IC50, CMV strain Towne (gB genotype 1) on MRC-5 fibroblasts [2]: 2.78 µg/mL; binding result [6]: binds; AUC of a 3-point dilution series [3]: 133 ± 33.3; fold increase in ELISA binding magnitude against the UCA (gB AD-2S1 peptide [4]): 151 fold

B11: TRL345 I8 (antibody, V domains shown)
VH: B1 VH with G31S, L34M, I53N, H59Y
VL: not shown
With B11 as the binder, how does the Kd (gB AD-2S1 peptide [5]) read?
The Kd was 23.2 nM.

What about the kon (gB AD-2S1 peptide [5]) of the same binder?
Its kon is 1.33e+08 M⁻¹ s⁻¹.

B12: TRL345 unmutated common ancestor (UCA) mAb (antibody, V domains shown)
VH: B1 VH with G31S, N33A, L34M, I53Y, H59Y
VL: not shown
notes: also called TRL345 UCA; TRL345.UCA
How did the “AUC of a 3-point dilution series” value [3] turn out when B12 was run?
The value was 97.3 ± 21.2.

B13: TRL345 UCA with VL N53D (antibody, V domains shown)
VH: B1 VH with G31S, N33A, L34M, I53Y, H59Y
VL: not shown
Does B13 bind [3]?
Result: binds

B14: MAB319 (antibody, V domains shown)
VH: B1 VH with A23S, G31D, N57D, Y60H, I70V, L79V, Y80S, N84D, A88P, F106Y
VL: B4 VL with S92N
How did the Kd (gB AD-2S1 peptide [1]) turn out when B14 was run?
Its Kd is 0.9 nM.

And the kon (gB AD-2S1 peptide [1])?
Its kon is 1.3e+08 M⁻¹ s⁻¹.

B15: I8 with VL N53D reverted to germline (antibody, V domains shown)
VH: B1 VH with G31S, L34M, I53N, H59Y
VL: not shown
For B15, which “fold decrease in neutralization potency for CMV strain Towne against I8” value [2] is on record?
Its value is 2.5 fold.

Does B15 bind [3]?
Result: binds

Does B15 bind (gB AD-2S1 peptide [4])?
Result: binds

B16: I8 with VH A33N reverted to germline (antibody, V domains shown)
VH: B1 VH with G31S, N33A, L34M, I53N, H59Y
VL: not shown
For B16, which other [3] is on record?
Its other is 1.4 fold.

And the other (gB AD-2S1 peptide [4])?
Its other is 395 fold.

B17: MAB343 (antibody, V domains shown)
VH: QVQLQESGGGVVQPGRSLRLSCAASGFTFNTYNMHWVRQAPGKGLEWVAVISNDGTYKYSADSVKGRFSISRGNSKNTLYLQMNSLRPDDTAVYYCARDGRSVGGFSGILDPWGQGTLATVSS
VL: B4 VL with L4M, E17D, E53D, V83F
How did the Kd (gB AD-2S1 peptide [1]) turn out when B17 was run?
The Kd was 1.57 nM.

What about the kon (gB AD-2S1 peptide [1]) of the same binder?
Its kon is 1.61e+08 M⁻¹ s⁻¹.

B18: MAB338 (antibody, V domains shown)
VH: QVQLVESGGGVVQPGRSLRLSCSGSGFTFSDYNLHWVRQAPGKGLEWVAVISIDGTNKHHADSVKGRFTISRDNSKNTVNLEMSRLKAEDTAVYYCVRDGRSIGGYSGIFDPWGQGTLVTVSS
VL: B4 VL with G30D, S31R, E53Q, T74A, V105I
With B18 as the binder, how does the Kd (gB AD-2S1 peptide [1]) read?
Its Kd is 1.99 nM.

And the kon (gB AD-2S1 peptide [1])?
The kon was 1.36e+08 M⁻¹ s⁻¹.

B19: anti-gB AD-2 mAb 3-25 (antibody, V domains shown)
VH: QVQLVESGGGVVQPGRSLRLSCAASGFTFSNHGLHWVRQPPGKGLEWVAVVSKDGTNEHYADSVRGRFTISRDNSKNTLYLLMKSLRLEDTAVYYCAREGYCGDDRCYSGQPDYWGQGILVTVSS
VL: B4 VL with S7F, S31R, A51S, E53N, I58V, T74S, V83F, Y87F, N93H
Which Kd (gB AD-2S1 peptide [5]) does the source give for B19 here?
Its Kd is 4.42 nM.

What about the kon (gB AD-2S1 peptide [5]) of the same binder?
The kon was 1.49e+08 M⁻¹ s⁻¹.

B20: I4 (antibody, V domains shown)
VH: B17 VH with Q5V, G73D, A119V
VL: B4 VL with E17D, E53D, V83F
notes: also called intermediate 4
For B20, which Kd (gB AD-2S1 peptide [1]) is on record?
Its Kd is 1.85 nM.

And the kon (gB AD-2S1 peptide [1])?
Its kon is 1.3e+08 M⁻¹ s⁻¹.

B21: MAB318 (antibody, V domains shown)
VH: QVQLVQSGGGVVQPGTSLRLSCAASGFMFNTYNMHWVRQAPGKGLEWVAVISNDGTYKHFADSLKGRFSISRDDSKNTLYLHMNSLRPDDTAIYYCARDGRSVGGFSGILDPWGQGTLVTVSS
VL: B4 VL with I2V, E17D, S28T, S31R, E53D, P59S, S76G, V83F, N93S
B21 was tested. Which Kd (gB AD-2S1 peptide [1]) did it give?
Its Kd is 3.68 nM.

And the kon (gB AD-2S1 peptide [1])?
The kon was 1.33e+08 M⁻¹ s⁻¹.

B22: TRL345 (antibody, V domains shown)
VH: B17 VH with Q5V, N30S, T31D, N53I, K65A, I70L, G73D, V93I, A119V
VL: B4 VL with L4M, E17D, I48M, A51S, E53V, V83F, S92N
notes: also called MAB345
B22 was tested. Which Kd (gB AD-2S1 peptide [5]) did it give?
The Kd was 0.29 nM.

What about the kon (gB AD-2S1 peptide [5]) of the same binder?
The kon was 1.52e+08 M⁻¹ s⁻¹.

B23: TRL345 mAb (antibody, V domains shown)
VH: B17 VH with Q5V, N30S, T31D, N53I, K65A, I70L, G73D, V93I, A119V
VL: B4 VL with L4M, E17D, I48M, A51S, E53V, V83F, S92N
Which results are given for B23?
neutralization IC50 on ARPE epithelial cells [2]: < 0.35 µg/mL; neutralization IC50 on MRC-5 fibroblasts [2]: < 0.25 µg/mL; AUC of a 3-point dilution series [3]: 152 ± 20.8

B24: TRL345 lineage second intermediate (I4) mAb (antibody, V domains shown)
VH: B17 VH with Q5V, G73D, A119V
VL: B4 VL with E17D, E53D, V83F
With B24 as the binder, how does the other (gB AD-2S1 peptide [7]) read?
Its other is 5 fold.

B25: MAB309 (I2) (antibody, V domains shown)
VH: B21 VH
VL: B4 VL with E17D, S28T, S31R, E53D, P59S, V83F, N93S
What does the source list for B25?
Kd (gB AD-2S1 peptide [1]): 3.77 nM; kon (gB AD-2S1 peptide [1]): 1.24e+08 M⁻¹ s⁻¹

B26: I1 (antibody, V domains shown)
VH: B17 VH with Q5V, G73D, A119V
VL: B4 VL with L4M, E17D, E53D, V83F
notes: also called intermediate 1
What does the source list for B26?
Kd (gB AD-2S1 peptide [1]): 1.59 nM; kon (gB AD-2S1 peptide [1]): 1.43e+08 M⁻¹ s⁻¹

B27: MAB313 (antibody, V domains shown)
VH: QVQLVQSGGGVIQPGRSLTLSCAASGFTFSAYSLHWVRQAPGKGLQWVAVISFDGNFKHFADSLRGRFTISRDNSKNRFYLQMNGLRGEDTAVYYCARDGRAVDGFSGILDFWGQGTLVSVSS
VL: B4 VL with L4M, S31R, A34T, Y36F, V83F, S92A
Which Kd (gB AD-2S1 peptide [1]) does the source give for B27 here?
The Kd was 4.38 nM.

What about the kon (gB AD-2S1 peptide [1]) of the same binder?
The kon was 1.54e+08 M⁻¹ s⁻¹.

B28: MAB316 (antibody, V domains shown)
VH: B27 VH with I12V, A31G, Y32F, F57H, R65K, R78T, F79L, M83I, G85D
VL: B4 VL with L4M, S31R, A34T, Y36F, I58V, V83F
Which Kd (gB AD-2S1 peptide [1]) does the source give for B28 here?
The Kd was 2.96 nM.

What about the kon (gB AD-2S1 peptide [1]) of the same binder?
Its kon is 1.63e+08 M⁻¹ s⁻¹.

B29: MAB310 (I3) (antibody, V domains shown)
VH: B21 VH with H59Y, F60S, D74N, I93V
VL: B4 VL with E17D, S28T, S31R, E53D, P59S, V83F
B29 was tested. Which Kd (gB AD-2S1 peptide [1]) did it give?
The Kd was 3.11 nM.

What about the kon (gB AD-2S1 peptide [1]) of the same binder?
The kon was 1.87e+08 M⁻¹ s⁻¹.

B30: 3–25 UCA with VH A33N (antibody, V domains shown)
VH: QVQLVESGGGVVQPGRSLRLSCAASGFTFSSYNMHWVRQAPGKGLEWVAVISYDGSNKYYADSVKGRFTISRDNSKNTLYLQMNSLRAEDTAVYYCAREGYCSGGSCYSGQPDYWGQGTLVTVSS
VL: not shown
How did the other [3] turn out when B30 was run?
The other was 4.4 fold.

B31: 3–25 UCA with VH A33G (antibody, V domains shown)
VH: B30 VH with N33G
VL: not shown
B31 was tested. Which other [3] did it give?
The other was 1.4 fold.
